No end group written: not given here. *: point of attachment. MTSSL = spin label (R1), CC1(C)C=C(CS*)C(C)(C)N1[O]
T1: p15 fragment of Caspase-8-cleaved mouse Bid (tBid) (Mus musculus (Mouse), UniProt P70444)
T1 chain: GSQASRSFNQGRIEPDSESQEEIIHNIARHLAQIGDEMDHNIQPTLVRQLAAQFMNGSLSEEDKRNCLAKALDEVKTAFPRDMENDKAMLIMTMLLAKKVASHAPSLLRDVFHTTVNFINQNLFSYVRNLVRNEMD

T2: p15 fragment of spin labeled cleaved mouse Bid (cBidR1), MTSSL on C126 (Mus musculus (Mouse), UniProt P70444, MTSSL spin label (R1) on C126)
T2 chain: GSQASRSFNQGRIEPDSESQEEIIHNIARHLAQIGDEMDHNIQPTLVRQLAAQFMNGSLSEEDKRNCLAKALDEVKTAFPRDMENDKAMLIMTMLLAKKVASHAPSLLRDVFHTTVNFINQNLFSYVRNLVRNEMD


Key:
[1] = molecular target: T1, p15 fragment of Caspase-8-cleaved mouse …; assay: SEC co-elution as 20 kDa complex, with SDS-PAGE and CD melting; no detergent; detergent (DDM/OG) dissociates the fragments, cardiolipin liposomes only partly
[2] = molecular target: T2, p15 fragment of spin labeled cleaved …; assay: DEER EPR (also cw EPR; Trp/Tyr fluorescence at 0.5 uM); no detergent; MTSSL on C30 and C126; 2% OG or 2% DDM dissociates (reversed by OG removal), cardiolipin liposomes only partly

binding result [1] | binding result [2] | Binder
binds | – | p7 fragment of Caspase-8-cleaved mouse Bid (protein) MDSEVSNGSGLGAEHITDLLVFGFLQSSGCTRQELEVLGRELPVQAYWEADLEDELQTD
– | binds | p7 fragment of spin labeled cleaved mouse Bid (cBidR1), MTSSL on C30 (protein) MDSEVSNGSGLGAEHITDLLVFGFLQSSGC(MTSSL)TRQELEVLGRELPVQAYWEADLEDELQTD
